Data reported in US7732178B2, “Laccase enzymes and their uses” (AB Enzymes Oy, priority 2004, dated 2010).
Entries after “also recorded” stand apart in the source; their conditions may differ.

B1: TaLcc2: Thielavia arenaria ALKO 4197 laccase, SEQ ID NO: 41, produced in Trichoderma reesei (protein)
chain: MLTETLKSRNMLQSILALLATALGSSAFAIPELPEVSLQPRQACENTATSRQCWGDLSIDTNYYEVLPSTGRPPQEYWLSVVEGPCAPDGYNRTCMTFNGTVPGPTLFADWGDELVIHVTNNMVNNGTAIHWHGIRMLNNTLNDGVPGVTQCAIAPGESMTYRFNVTQYGSTWYHSHFSLQYAEGLFGGMILRGPSTANWDEDLGVLFLQDWSHVEAFTRWHEAKAGFPPSLDGGLINGTNTFDCSTLSPTDPKCTGNGKKFETVFEPGKKYLIRLINVAIDGVFQFSIDGHSLTVIATDLVPIVPYTTDSVQITIGQRYDIIVEANATPGNYWMRADWVTACVTNDHPEHMTGIVRYDASSIDPPTSESNVTKTSSCLGEPNEKTIPHLSLDVTNIGGTNVEELSFDTTSGDYFQWTLNTSSLVLDWGNPTMARIFNGDAIFPTEYNVVAVNKTGTGPEWTVLVIQDQSNLPIAHPIHLHGHDFWVLAAEEGVFNGNISSFNTRNPARRDVATLPGRGYLAIAFQIDNPGTWLTHCHIAWHASQGLSLEFVESQSEIVTDEVSRGVFNDVCASWRAHDPLWEQEDSGI
modifications: Thielavia arenaria ALKO4197; (1)..(589) Deduced amino acid sequence of Thielavia arenaria ALKO4197 TaLacc2
B2: CtLcc1: Chaetomium thermophilum ALKO 4265 laccase, SEQ ID NO: 47, produced in Trichoderma reesei (protein)
chain: MKFLTYATALLGALTAVVGAIPTRSGTKKKYIRDGPGPCHTPSNRACWAPGFDINTDYEVNTPNTGVTRNYTLTLTEEDNWTGPDGVVKEKIMLVNGKTLGPTIEANWGDWIEVKVINNLLTNGTSIHWHGIHQKGSNLHDGANGVTECPIPPNGGQRTYRFRAQQYGTSWYHSHFSAQYGNGIVGPIVIHGPASLPYDIDLGPFPLTDYYYKSADELVRHTQNNGPPFSDNVLFNGTGVHPQTGHGQYAKVTLTPGKRHRLRIINMSTENHFQVSLVGHQFTVIAADMVPVHSYTTDSLFLAVGQRYDVTIDASQTPGNYWFNVTFGGGFACGGSFNPNPAAIFHYEGAPDALPTDPGVPPRDHNCLDTLDLVPVVPRNVQVNQFVKKPENTLPVELSLGGTPLFVWKVNGSAIDVDWGNPVLQYVMDRNTSYRQADNIVEVNGVNQWTYWLIENDPNGAFSLPHPMHLHGHDFLIVGRSPDVPPGSNQRYNFDPATDIYRLRGQNPTRRDVAMLPAGGWLLLAFLTDNPGAWLFHCHIAWHVSGGLSVDFLERPNDLRNSILQHDKDEFNRVCNEWRTYWPNSPHPKIDSGLKHRWVEESEWLVR
modifications: Chaetomium thermophilum ALKO4265; (1)..(607) Deduced amino acid sequence of Chaetomium thermophilum ALKO4265 CtLcc1

Legend:
[1] = Redox potential of T1 copper, photometric copper titration; type: physicochemical; settings: 0.1 M KH2PO4 (pH 6.0)
Experimental: The purified recombinant Thielavia and Chaetomium laccases were characterized in terms of pH optimum, thermal stability, and pI as described in Example 2. The molecular weight was determined by MALDI-TOF mass spectrometry on a Ultraflex™ time-of-flight instrument (BrukerDaltonics, Germany) as previously described (Palonen et al., 2003). The redox-potentials of the T1 coppers of for CtLcc, and TaLcc2 laccases were determined by photometric copper titration in 0.1 M KH2PO4 (pH 6.0) as described by Xu et al. (1996) using the redox titrant couple K3Fe(CN)6/K4Fe(CN)6. The redox potential of TaLcc1 was determined with a combined Pt—AgCl/KCl microelectrode at pH 5.0 according to Sigoillot et al (2004). The characterization results are collected to Table 14.

[2] = Denim bleaching at different temperatures; design: key to After laccase treatment L* / After laccase treatment b* / Increase of L*: CIE L*a*b* colour coordinates (illuminant D65), reflectance; settings: for decolorization of denim (increase of lightness) compared to Denilite II Base: 40-50 ° C. and pH 6; for After laccase treatment L* / After laccase treatment b* / Increase of L*: face side of denim, 30 min, pH 6, enzyme 200 nkat/g, mediator 10 mg/g
Experimental: Lee Cooper jeans (MASI Company Oy, Finland) that were desized and treated with neutral ECOSTONE® cellulase were used as test material. Laccase treatments were performed in LP-2 Launder Ometer as follows. About 10 g of denim swatches (15×14 cm) were loaded into 1.2 liter containers containing 200 ml Mc Ilvaine's citrate phosphate buffer pH 5, 6 or 7 and the containers were temperated. Enzyme with or without the mediator (methyl syringate, DeniLite II Assist, Novozymes) was added as laccase activity units. Enzyme was dosed 200 nkat/g and the mediator 10 mg/g on the weight of fabric. […] The Launder Ometer was run at 50° C. for 30 min and after that the temperature in Launder was raised to 80° C. for 10 min. The swatches were carefully rinsed with warm water, dried half-dry in a tumbler and after that air dried.
The bleaching effect was evaluated by measuring the colour as reflectance values with the Minolta Chromameter CM 1000 (Minolta Co.) using L*a*b* color space coordinates (illuminant D65). The colour from both sides of the swatches was measured before and after the laccase treatment. Each measurement was the average of several measurements.
The test system and denim were as in Example 7, except that the conditions during the laccase and mediator treatment in Launder were 30 min, pH 6 and temperature 30-70° C. (DeniLite II Base also at 80° C.) and the enzyme was inactivated by alkaline treatment instead of raising the temperature in Launder as follows. After removing swatches from the containers they were soaked in warm water containing NaOH (pH 11.5) for 10 min and rinsed carefully with warm water. The swatches were dried half-dry in a tumbler and after that air dried. The bleaching effect was evaluated by measuring the colour as reflectance values as in Example 7.

[3] = Decolorization of dyes; design: key to Decolorization of Cibacron Brilliant Red 3B-P, Time 30 min / Decolorization of Cibacron Brilliant Red 3B-P, Time 60 min: −: no visually detectable change; +: visually detectable fading of the colour; ++: considerable fading of the colour; +++: complete/almost complete decolorization; settings: for Decolorization of Cibacron Brilliant Red 3B-P, Time 30 min / Decolorization of Cibacron Brilliant Red 3B-P, Time 60 min: dye 5 mg/50 ml, enzyme 100 nkat/50 ml, 50° C., pH 6; for decolorization of Cibacron Brilliant Red 3B-P: in the presence of the mediator
Experimental: (§1) The recombinant laccases CtLcc1, TaLcc2 and TaLcc4, derived from Trichoderma strains (Example 7) were tested for their ability to decolorize different dyes in the presence of the methyl syringate mediator (Example 7) or without it. The experiments were carried out in 100 ml shake flasks containing 50 ml of dye dissolved in citrate phosphate buffer pH 6. Dye concentration 5 mg/50 ml was used. Enzyme was dosed 100 nkat per 50 ml and the mediator 5 mg per 50 ml. Control samples contained only dye solution. The shake flasks were incubated at 50° C. for 30, 60 and 120 minutes. Samples of 3.5 ml were taken in test tubes for visual evaluation.

[4] = Decolorization of dyes; design: key to Decolorization of Remazol Brilliant blue, Time 30 min / Decolorization of Remazol Brilliant blue, Time 60 min: −: no visually detectable change; +: visually detectable fading of the colour; ++: considerable fading of the colour; +++: complete/almost complete decolorization; settings: for Decolorization of Remazol Brilliant blue, Time 30 min / Decolorization of Remazol Brilliant blue, Time 60 min: dye 5 mg/50 ml, enzyme 100 nkat/50 ml, 50° C., pH 6; for decolorization of Remazol Brilliant Blue: in the presence of the mediator
Experimental: as §1

[5] = Decolorization of dyes; design: key to Decolorization of Indigocarmine, Time 30 min / Decolorization of Indigocarmine, Time 60 min: −: no visually detectable change; +: visually detectable fading of the colour; ++: considerable fading of the colour; +++: complete/almost complete decolorization; settings: for Decolorization of Indigocarmine, Time 30 min / Decolorization of Indigocarmine, Time 60 min: dye 5 mg/50 ml, enzyme 100 nkat/50 ml, 50° C., pH 6; for decolorization of Indigocarmine: in the presence of the mediator
Experimental: as §1

| Molecule | E^0 [1] | decolorization of denim (increase of lightness) compared to Denilite II Base [2] | After laccase treatment L* ([2]; 30° C.) | After laccase treatment b* ([2]; 30° C.) | Increase of L* ([2]; 30° C.) | After laccase treatment L* ([2]; 40° C.) | After laccase treatment b* ([2]; 40° C.) | Increase of L* ([2]; 40° C.) | After laccase treatment L* ([2]; 50° C., alkaline inactivation) | After laccase treatment b* ([2]; 50° C., alkaline inactivation) | Increase of L* ([2]; 50° C., alkaline inactivation) | After laccase treatment L* ([2]; 60° C.) | After laccase treatment b* ([2]; 60° C.) | Increase of L* ([2]; 60° C.) | After laccase treatment L* ([2]; 70° C.) | After laccase treatment b* ([2]; 70° C.) | Increase of L* ([2]; 70° C.) | decolorization of Cibacron Brilliant Red 3B-P [3] | decolorization of Remazol Brilliant Blue [4] | decolorization of Indigocarmine [5] | also measured |
| --- | --- | --- | --- | --- | --- | --- | --- | --- | --- | --- | --- | --- | --- | --- | --- | --- | --- | --- | --- | --- | --- |
| B1 | 450 mV | more efficient | 33.99 | −19.33 | 4.45 | 37.08 | −18.53 | 8.15 | 37.47 | −18.48 | 9.00 | 36.07 | −18.26 | 6.82 | 32.84 | −17.94 | 4.54 | partly decolorized | very effectively; also recorded: to great extend or completely | very effectively; also recorded: to great extend or completely | Decolorization of Cibacron Brilliant Red 3B-P, Time 30 min ([3]; Table 24, mediator 0 mg/50 ml): −; Decolorization of Cibacron Brilliant Red 3B-P, Time 60 min ([3]; Table 24, mediator 0 mg/50 ml): −; Decolorization of Cibacron Brilliant Red 3B-P, Time 30 min ([3]; Table 24, mediator 5 mg/50 ml): +; Decolorization of Cibacron Brilliant Red 3B-P, Time 60 min ([3]; Table 24, mediator 5 mg/50 ml): +; Decolorization of Remazol Brilliant blue, Time 30 min ([4]; Table 24, mediator 0 mg/50 ml): −; Decolorization of Remazol Brilliant blue, Time 60 min ([4]; Table 24, mediator 0 mg/50 ml): −; Decolorization of Remazol Brilliant blue, Time 30 min ([4]; Table 24, mediator 5 mg/50 ml): ++; Decolorization of Remazol Brilliant blue, Time 60 min ([4]; Table 24, mediator 5 mg/50 ml): +++; Decolorization of Indigocarmine, Time 30 min ([5]; Table 24, mediator 0 mg/50 ml): −; Decolorization of Indigocarmine, Time 60 min ([5]; Table 24, mediator 0 mg/50 ml): −; Decolorization of Indigocarmine, Time 30 min ([5]; Table 24, mediator 5 mg/50 ml): +++; Decolorization of Indigocarmine, Time 60 min ([5]; Table 24, mediator 5 mg/50 ml): +++ |
| B2 | 480 mV | more efficient | 31.78 | −19.15 | 2.44 | 34.43 | −18.77 | 5.72 | 36.78 | −18.96 | 8.26 | 37.40 | −18.29 | 8.52 | 34.16 | −17.91 | 5.23 | partly decolorized | very effectively; also recorded: to great extend or completely | very effectively; also recorded: to great extend or completely | Decolorization of Cibacron Brilliant Red 3B-P, Time 30 min ([3]; mediator 0 mg/50 ml): −; Decolorization of Cibacron Brilliant Red 3B-P, Time 60 min ([3]; mediator 0 mg/50 ml): −; Decolorization of Cibacron Brilliant Red 3B-P, Time 30 min ([3]; mediator 5 mg/50 ml): +; Decolorization of Cibacron Brilliant Red 3B-P, Time 60 min ([3]; mediator 5 mg/50 ml): +; Decolorization of Remazol Brilliant blue, Time 30 min ([4]; mediator 0 mg/50 ml): −; Decolorization of Remazol Brilliant blue, Time 60 min ([4]; mediator 0 mg/50 ml): −; Decolorization of Remazol Brilliant blue, Time 30 min ([4]; mediator 5 mg/50 ml): ++; Decolorization of Remazol Brilliant blue, Time 60 min ([4]; mediator 5 mg/50 ml): +++; Decolorization of Indigocarmine, Time 30 min ([5]; mediator 0 mg/50 ml): −; Decolorization of Indigocarmine, Time 60 min ([5]; mediator 0 mg/50 ml): −; Decolorization of Indigocarmine, Time 30 min ([5]; mediator 5 mg/50 ml): +++; Decolorization of Indigocarmine, Time 60 min ([5]; mediator 5 mg/50 ml): +++ |
